Test results from patent publication US20160159910A1 (Genentech, published 2016).
Substitutions are numbered along the chain they refer to. Each block holds one binder with its values, some of them ahead of it.

What was measured:
human B7-H4 [1] = target: T1, human B7-H4 (human, UniProt Q7Z7D3 29-282); assay: Scatchard analysis, 125I-antibody radioligand cell binding on MX-1 tumor cells
T1 construct: On stably transfected 293 cells (recombinant) or on MX-1 / SKBR3 tumor cells (endogenous); the cell is named under assay; also called huB7-H4; hB7-H4
T1 sequence: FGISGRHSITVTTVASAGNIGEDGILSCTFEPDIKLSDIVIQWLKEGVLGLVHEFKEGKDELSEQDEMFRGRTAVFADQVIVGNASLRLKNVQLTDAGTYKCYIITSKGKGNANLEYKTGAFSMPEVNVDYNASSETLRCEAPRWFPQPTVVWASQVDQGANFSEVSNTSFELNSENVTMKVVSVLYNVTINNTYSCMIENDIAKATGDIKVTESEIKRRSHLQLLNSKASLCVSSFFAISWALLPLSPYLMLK
Protocol: (§1) Competition assay mixtures of 50 μL volume containing a fixed concentration of [I¹²⁵] labeled antibody and decreasing concentrations of serially diluted, unlabeled antibody were placed into 96-well plates. […] Cells were detached from the flask using Sigma Cell Dissociation Solution and were washed with binding buffer, which consisted of Dulbecco's Modified Eagle Medium (DMEM) with 1% bovine serum albumin (BSA), […] and 0.1% sodium azide. The washed cells were added to the 96 well plates at a density of 100,000 cells in 0.2 mL of binding buffer. The final concentration of the [I¹²⁵] labeled antibody in each well was ˜250 pM. The final concentration of the unlabeled antibody in the competition assay ranged from 1000 nM through ten 2-fold dilution steps to a 0 nM buffer-only assay. Competition assays were carried out in triplicate. Competition assays were incubated for 2 hours at room temperature. After the 2-hour incubation, the competition assays were transferred to a Millipore Multiscreen filter plate (Billerica, Mass.) and washed 4 times with binding buffer to separate the free from bound [I¹²⁵] labeled antibody. The filters were counted on a Wallac Wizard 1470 gamma counter (PerkinElmer Life and Analytical Sciences Inc.; Wellesley, Mass.). The binding data was evaluated using NewLigand software (Genentech), which uses the fitting algorithm of Munson and Robard to determine the binding affinity of the antibody (Munson and Robard 1980).

human B7-H4 [2] = target: T1, human B7-H4; assay: FACS titration on MX-1 tumor cells, endogenous human B7-H4 (panel 'MX-1 tumor cell line', upper block), geometric mean fluorescence
Protocol: (§2) The fluorescent signal was acquired with a BD FACS Calibur and EC₅₀ values were determined with the Graph Pad program Prism 4.

cynomolgus monkey B7-H4 [3] = target: T2, cynomolgus monkey B7-H4 (cynomolgus monkey, UniProt Q7Z7D3 29-282 (human entry)); assay: FACS titration on 293 cells expressing recombinant cynomolgus B7-H4 (panel '293-cyno B7-H4', upper block), geometric mean fluorescence
T2 construct: On stably transfected 293 cells; also called cyno B7-H4; recombinant cynomolgus monkey B7-H4
T2 chain: T1 sequence with L49I, F238L, S248A
Protocol: as §2

human B7-H4 [4] = target: T1, human B7-H4; assay: Scatchard analysis on MX-1 cells; the table puts the affinity of 10 nM beside the parent antibody's 4.9 nM
Protocol: as §1, with “After the 2-hour incubation, the competition assays were transferred to a Millipore Multiscreen filter plate (Billerica, Mass.) and washed 4 times with binding buffer to separate the free from bound [I¹²⁵] labeled antibody.” left out

human B7-H4 [5] = target: T1, human B7-H4; assay: FACS titration on 293 cells expressing recombinant human B7-H4 (panel '293-human B7-H4', upper block), Dylight-650 goat anti-human IgG, geometric mean fluorescence
Protocol: as §2

mouse B7-H4 [6] = target: T3, mouse B7-H4 (mouse, UniProt Q7TSP5 29-283); assay: FACS titration on 293 cells expressing recombinant mouse B7-H4 (panel '293-mouse B7-H4', upper block), geometric mean fluorescence
T3 construct: On stably transfected 293 cells; also called muB7-H4; recombinant mouse B7-H4
T3 sequence: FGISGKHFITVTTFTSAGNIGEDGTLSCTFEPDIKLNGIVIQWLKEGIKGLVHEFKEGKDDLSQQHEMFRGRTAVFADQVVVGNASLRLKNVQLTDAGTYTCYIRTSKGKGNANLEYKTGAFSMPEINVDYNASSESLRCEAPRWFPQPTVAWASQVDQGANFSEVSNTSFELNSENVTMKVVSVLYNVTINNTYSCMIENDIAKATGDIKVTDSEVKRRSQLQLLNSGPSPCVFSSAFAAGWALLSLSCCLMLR
Protocol: as §2

rat B7-H4 [7] = target: T4, rat B7-H4 (rat, UniProt Q501W4 29-282); assay: Scatchard on stable cell line expressing recombinant B7-H4 (footnote 1 of the table)
T4 construct: On stably transfected 293 cells; also called recombinant rat B7-H4
T4 sequence: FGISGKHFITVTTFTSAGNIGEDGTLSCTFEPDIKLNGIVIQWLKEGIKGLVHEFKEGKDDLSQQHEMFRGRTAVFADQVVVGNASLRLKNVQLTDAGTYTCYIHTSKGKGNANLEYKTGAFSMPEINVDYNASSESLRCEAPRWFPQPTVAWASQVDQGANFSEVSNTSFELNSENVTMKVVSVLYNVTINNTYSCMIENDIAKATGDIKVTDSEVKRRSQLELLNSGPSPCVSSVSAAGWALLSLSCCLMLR
Protocol: Competition assay mixtures of 50 μL volume containing a fixed concentration of [I¹²⁵] labeled antibody and decreasing concentrations of serially diluted, unlabeled antibody were placed into 96-well plates. […] Cells were detached from the flask using Sigma Cell Dissociation Solution and were washed with binding buffer, which consisted of Dulbecco's Modified Eagle Medium (DMEM) with 1% bovine serum albumin (BSA), 300 mM human IgG and 0.1% sodium azide. The washed cells were added to the 96 well plates at a density of 100,000 cells in 0.2 mL of binding buffer. The final concentration of the [I¹²⁵] labeled antibody in each well was ˜250 pM. The final concentration of the unlabeled antibody in the competition assay ranged from 1000 nM through ten 2-fold dilution steps to a 0 nM buffer-only assay. Competition assays were carried out in triplicate. Competition assays were incubated for 2 hours at room temperature.

cynomolgus monkey B7-H4 [8] = target: T2, cynomolgus monkey B7-H4; assay: Scatchard analysis, 125I-antibody radioligand cell binding on stably transfected 293 cells
Protocol: as §1

human B7-H4 [9] = target: T1, human B7-H4; assay: as above
Protocol: as §1

[10] = target: T5, human B7-H4 S114A glycosylation mutant (human, UniProt Q7Z7D3 29-282); assay: FACS on 293 cells transfected with S114A human B7-H4 (glycosylation independence)
T5 construct: Full-length human B7-H4 membrane construct with S114 changed to alanine to prevent N-linked glycosylation at N112-S114; transiently expressed on 293 cells; also called mutated S114A human B7-H4; recombinant human B7-H4 S114A
T5 sequence: T1 sequence with S86A

human B7-H4 [11] = target: T1, human B7-H4; assay: FACS titration on MX-1 tumor cells, endogenous human B7-H4 (panel 'MX-1 tumor cell line', lower block), geometric mean fluorescence
Protocol: as §2

cynomolgus monkey B7-H4 [12] = target: T2, cynomolgus monkey B7-H4; assay: FACS titration on 293 cells expressing recombinant cynomolgus B7-H4 (panel '293-cyno B7-H4', lower block), geometric mean fluorescence
Protocol: as §2

human B7-H4 [13] = target: T1, human B7-H4; assay: Scatchard analysis on MX-1 cells; the table puts the affinity of 8.3 nM beside the parent antibody's 7.8 nM
Protocol: as §1, with “After the 2-hour incubation, the competition assays were transferred to a Millipore Multiscreen filter plate (Billerica, Mass.) and washed 4 times with binding buffer to separate the free from bound [I¹²⁵] labeled antibody.” left out

human B7-H4 [14] = target: T1, human B7-H4; assay: FACS titration on 293 cells expressing recombinant human B7-H4 (panel '293-human B7-H4', lower block), Dylight-650 goat anti-human IgG, geometric mean fluorescence
Protocol: as §2

mouse B7-H4 [15] = target: T3, mouse B7-H4; assay: FACS titration on 293 cells expressing recombinant mouse B7-H4 (panel '293-mouse B7-H4', lower block), geometric mean fluorescence
Protocol: as §2

human B7-H4 [16] = target: T1, human B7-H4; assay: Scatchard analysis on MX-1 cells; the table puts the affinity of 8.7 nM beside the parent antibody's 7.8 nM
Protocol: as §1, with “After the 2-hour incubation, the competition assays were transferred to a Millipore Multiscreen filter plate (Billerica, Mass.) and washed 4 times with binding buffer to separate the free from bound [I¹²⁵] labeled antibody.” left out

mouse B7-H4 [17] = target: T3, mouse B7-H4; assay: Scatchard analysis, 125I-antibody radioligand cell binding on stably transfected 293 cells
Protocol: as §1

rat B7-H4 [18] = target: T4, rat B7-H4; assay: as above
Protocol: as §1

[19] = target: T6, soluble B7-H4 (Ig-V; G28-V157)-Fc fusion protein (human, UniProt Q7Z7D3 28-157); assay: FACS competition: soluble B7-H4 (Ig-V)-Fc against dye-labelled 22C10 on 293 cells expressing human B7-H4
T6 construct: Engineered soluble protein; also called B7-H4-(Ig-V)-hIgG1 Fc fusion protein; soluble B7-H4 IgV-Fc fusion protein; not shown: human IgG1 Fc
T6 sequence: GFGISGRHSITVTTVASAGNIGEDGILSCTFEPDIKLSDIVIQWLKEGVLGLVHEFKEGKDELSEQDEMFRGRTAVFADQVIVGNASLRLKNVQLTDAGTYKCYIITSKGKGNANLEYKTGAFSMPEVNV

Kd (human B7-H4 [1]): 10 nM
EC50 (human B7-H4 [2]): 0.73 µg/mL
EC50 (cynomolgus monkey B7-H4 [3]): 1.19 µg/mL
Fold to Parent mAb (human B7-H4 [4]): 0.49
EC50 (human B7-H4 [5]): 1.44 µg/mL
EC50 (mouse B7-H4 [6]): 0.97 µg/mL
B1: humanized 22C10.v2.8 (antibody, V domains shown)
VH: EVQLVQSGAEVKKPGASVKVSCKASGYTFTNFWIHWVRQAPGQGLEWIGEIDPSDSYTNYNQKFKGRVTITRDTSTSTAYLELSSLRSEDTAVYYCAREITTVDYWGQGTLVTVSS
VL: DIQMTQSPSSLSASVGDRVTITCSATSSISYMHWYQQKPGKAPKGLIYDTSKLAHGVPSRFSGSGSGTDFTLTISSLQPEDFATYYCHQRRSYPFTFGQGTKVEIK
notes: Assessed in the form of an IgG produced in 293 cells; also called hu22C10.v2.8; h22C10.v2.8

binding result (rat B7-H4 [7]): no binding
Kd (cynomolgus monkey B7-H4 [8]): 3.1 nM
Kd (human B7-H4 [9]): 4.8 nM
fold binding over the isotype control [10]: 100 fold
B2: chimeric antibody ch32D6 (antibody, human IgG1, V domains shown)
VH: EVQLQQSGPDLVKPGASVKISCKASGYSFTGYYIHWMKQSHGKSLEWIGRVNPNNGDPIYNQKFRGKAILTVDQSSNTAYMELRSLTSEASAVYYCARVLFYYGSPFAYWGQGTLVTVSA
VL: DIVMTQSPSSLIVTAGEKVTMSCRSSQSLFDSGSQRNYLTWFHQKPGRPPKLLIYWASTRESGVPDRFTGSGSGTDFTLTISSVQTEDLAVYFCQNDYSFPFTFGSGTKLEEK
notes: also called antibody 32D6

The next lines start with the binder.

B3: humanized 1D11.v1.7 (antibody, V domains shown)
VH: EVQLVQSGAEVKKPGASVKVSCKASGYTFTSYWIGWVRQAPGQGLEWIGDIYPGGGYTNYNEKFKGRATLTRDTSTSTAYLELSSLRSEDTAVYYCARLDGSSYRGAMDSWGQGTLVTVSS
VL: DIQMTQSPSSLSASVGDRVTITCKASQGFNKYVAWYQQKPGKAPKLLIYYTSTLQPGVPSRFSGSGSGRDYTLTISSLQPEDFATYYCLQYGNLLYAFGQGTKVEIKR
notes: also called hu1D11.v1.7; h1D11.v1.7
EC50 (human B7-H4 [11]): 0.34 µg/mL
Kd (human B7-H4 [1]): 8.3 nM
EC50 (cynomolgus monkey B7-H4 [12]): 0.68 µg/mL
Fold to Parent mAb (human B7-H4 [13]): 0.94
EC50 (human B7-H4 [14]): 0.66 µg/mL
EC50 (mouse B7-H4 [15]): 0.45 µg/mL

B4: humanized 1D11.v1.8 (antibody, V domains shown)
VH: B3 VH with L70I
VL: B3 VL
notes: also called hu1D11.v1.8; h1D11.v1.8
EC50 (human B7-H4 [11]): 0.53 µg/mL
Kd (human B7-H4 [1]): 8.7 nM
EC50 (cynomolgus monkey B7-H4 [12]): 0.18 µg/mL
Fold to Parent mAb (human B7-H4 [16]): 0.89
EC50 (human B7-H4 [14]): 2.29 µg/mL
EC50 (mouse B7-H4 [15]): 1.32 µg/mL

B5: chimeric antibody ch22C10 (antibody, human IgG1, V domains shown)
VH: QVQLQQPGAELVKPGTSVKLSCKASGYTFTNFWIHWVIQRPGQGLEWIGEIDPSDSYTNYNQKFKGKATLTVDKSSNTAYMQLSSLTSEDSAVYYCSREITTVDYWGQGTTLTVSS
VL: QIVLTQSPTIMSASPGEKVTLTCSATSSISYMHWYQQKPGTSPKGWIYDTSKLAHGVPARFSGSGSGTSYSLTISSMEAEDAATYYCHQRRSYPFTFGSGTKLEIK
notes: also called ch2210; parental 22C10 antibody
Kd (human B7-H4 [1]): 4.9 nM
EC50 (human B7-H4 [2]): 0.35 µg/mL
EC50 (cynomolgus monkey B7-H4 [3]): 0.41 µg/mL
Kd (cynomolgus monkey B7-H4 [8]): 4.6 nM
Kd (human B7-H4 [9]): 6.6 nM
Kd (mouse B7-H4 [17]): 18.3 nM
Kd (rat B7-H4 [18]): 5.7 nM
fold binding over the isotype control [10]: 100 fold
binding result [19]: no binding
EC50 (human B7-H4 [5]): 1.2 µg/mL
EC50 (mouse B7-H4 [6]): 0.66 µg/mL
